Source: the DeepSol protein solubility set

Assay: soluble on expression in E. coli; label from the status in PepcDB or PDB records

Sequence	soluble on expression in E. coli
MSLEQLVLAIDLGTSGCKCALVSMEVDIRSWAFHGVPLHVSGLSAEQEPEDWWNAFMLGAHELLGADPLRRRQVVAICCSTQSEGTVCVDRNGAAIGRALLWLDKRGADSIKQRMGGGWCNLGGYGPLKLWRSLRLTGGVASLSGMDSAGHMAYILDHDPARYEKTHKFLNVLDYMNMRLSGRYCATGDSMLTAWITDNRDPHRIRYDDGLIRALGIDAGKLPELVGSTEVIGTLKPELADVLGLPRSTPVVAGAVDTSAVAVGATVRDFAPHLYLGTSSWVGAHVPFKKSSVRHHIAAVPSAVKGRYLAMAMQSAAGANLSFLRDKVLYHPDELLSDEQQPDVYALLDRIAARVPPGSRGLIYTPWLCGERSPVGDPSLRAGLINLKLEHSREDIIRAFMEGVAHNTRWMLEPFSRFIGQSSEIIVATGGGAQSDVWCQIMADVCGRVIQQPHNPIQTNARGAAFIAAVALGKLQFNDLPTLQRPHRLYEPSRSTRNLYDNRFATFKEVRKRLAPLYRRLNPSQETTEGHHHHHH	not soluble
MGSDKIHHHHHHMINYTELEENIKKNNIENVYIMCGFNEKLMKESINKILKKSISQDFESLNYSVFDGNEVEFEDILNACETVPFMSEKRMVVVYRAGFLNDNSSGSNKNSDKLIKDIEKYVPNVPKHCILVMYYVFDNTREKPSYRVKKFDKKVCVVEFSKLRGMQFQKKVKDVFAEKGKQIGKTELNYFCSRVENNMDIVYNEIEKLCCYTLEKEITKESIDNLLQPNETDDIFNLVDYISQSKPEMAITVLNEIMYKGVKANSILYMVERQFKLMLSIKIGIENKQSKEALVKELKLNPYVCDKMINECKRFTMKKILKSLDICLRTEKELKSVSGDPKFKMEVLIINLAII	not soluble
MIVLGIESSCDETGLAIYDYSKKKLIADELYSQVKLHKKYGGVVPELASREHIAKLNLLAKKIFKETGLSFEDIDCIAYTAMPGLVGALMVGATFAKTLGLIHNIDTIAVHHLEGHLLSPLLDHNSNIEYPFVALLVSGGHTQLFEVKEFGEYSLLGESIDDAAGEAFDKTTKLLGMGYPGGVEVANLADQATDKSKYILPRPMKNKPNLDFSFSGLKTAVLNTWYDEQDQSLENKANLCYAFQDAAIDVLVSKCAKALQKTKNTRLVISGGVSANKLLRHQLDLLAKNRGYQIFFPPMKYCTDNGAMIALAGAYRYVNGFKDSNLEINVKARSPL	soluble
RIVCQFSCGAASAVATKLALADYSATHDVQILNAYLVNEHADSLRFLADCEAWFEQPVTVLRDEKYGADIIEVFRRERFIKKQYGASCTQLLKRRLLDIWKLPGDVMVFGYTAEEADRLEDFRERNPDRPVIAPLIDRGLGKEDCKAMIQRAGIELPVMYRMGYDNANCI	not soluble
MVDYDKQMKTWIRSQHLICVGSDFIFETVDQTQLDKFETCIRGMGGRIRTVKAVGNWPMGPRRSFKILQATASVPRPGGEALVTYWAKKGSKTTRYSEISS	soluble
LDVAKSLDQGLVDRMLQSNTGTDSCPKRLPKGIDSVTLDKIRDLFVGEAALTADEAGEKIGASRTTARRYLEYLISSGELEADLNYGTVGRPERCYKKVIR	not soluble
MGSDKIHHHHHHMTTSIDTLSAFVYAADLGSFSAAARRLGKSQSTISEAIANLEIDLGSSLFDRGTRAPTLTPAGRLLLPQARQIMAASQDLRRQAAQLNAGVETRLTIVLSDTFQSRTLESVACRLEERYPLLELECLVGEQEDVLDLILSGRAQLGLVGAMDSYPPDVRHQRQREASELALYAAHRHPLAGMDRIDEQQLDQHRQLRLNTYSDKTPADSGQRQWYAPSYLMLLDMARLGVGWAELPCWLVHSFGGGELKQLDVAGWPKRMPVDLVWAANKPLGAAAGWLLQQLTDGAEQR	not soluble
MNVTEISAGQFQEMVQAGATRLHTNAEYVNSLNVFPVPDGDTGTNMNLSMTSGAKAVADSRSEKVGELAGALSKGLLMGARGNSGVILSQLFRGFSKQIPEVTTLNAKDLAAAFTHGVETAYKAVMKPVEGTILTVSREAARSGERKAKETDDCIEVMTAVVAGAKRALAKTPDLLPVLKEVGVVDSGGQGLLFIYEGFLEALSGEFLPTETYEPSPAEMDEMVNAEHHRGVSGHVATEDIKFGYCTEIMVRIGEGPTVDSAFDYETFRNYLNELGDSLLVVNDDEIIKVHVHTEHPGEVMNYGQKFGSLVKIKVDNMRLQHETLVERDAQQEALTEKVRVPFAVIAIAAGEGVQELFRSLGASYIISGGQTMNPSTEDILKAVKEVNAEQVIILPNNKNIFMAADQAAEVADVPVAVVPSKTISQGMTAMLAFNDQQSLEENKASMTEMLDSVVSGQVTTAVRDTTIDDVEIKKDDFLGMIDGKIVVSEADRFNASLDTLNRMIDEDTEIVTIIVGEDGSVEEAEKLIAILVSENDELETELHEGGQPVYPYLFSAE	not soluble
GPHMAVVDDLAPGMDSSPPSEDYGRQPPQDLAAEQSVLGGMLLSKDAIADVLERLRPGDFYRPAHQNVYDAILDLYGRGEPADAVTVAAELDRRGLLRRIGGAPYLHTLISTVPTAANAGYYASIVAEKALLRRLVEAGTRVVQYGYAGAEGADVAEVVDRAQAEIYDVADRRLSEDFVALEDLLQPTMDEIDAIASSGG	soluble
VVCREASHAGSWYTASGPQLNAQLEGWLSQVQSTKRPARAIIAPHAGYTYCGSCAAHAYKQVDPSITRRIFILGPSHHVPLSRCALSSVDIYRTPLYDLRIDQKIYGELWKTGMFERMSLQTDEDEHSIEMHLPYTAKAMESHKDEFTIIPVLVGALSESKEQEFGKLFSKYLADPSNLFVVSSDFCHWGQRFRYSYYDESQGEIYRSIEHLDKMGMSIIEQLDPVSFSNYLKKYHNTICGRHPIGVLLNAITELQKNGMNMSFSFLNYAQSSQCRNWQDSSVSYAAGALTVH	soluble
MSLDEILKQEMQKELTTRILPYWMERMVDQENGGFYGRITGQEELMPRADKGAILNARILWTYSAAYRLLGREEYKEMANRAKRYLIDHFYDSEFGGVYWSLNYRGEPLDTKKQIYAIGFAIYGLSEFHRATGDPEALMYAVRLFNDIESHSFDGLKNGYCEALTREWNEIADMRLSEKDANERKTMNTHLHILEPYTNLYRVWKDARLERQLYNLIGLFTEKILDKDTSHLQLFFDNDWQSKYPVVSYGHDIEASWLLHEAARVLGDAGLIAEIEPVVKKIAAAASEGLTSDGGMIYEKNLTTGHIDGDYHWWVQAETVVGYYNLFRYFGDRGALQHSIDCWEFIKRHLTDDVHGEWFWSLRADGSLNRDDDKAGFWKCPYHNGRMCIELLGEGHHHHHH	soluble
FPEKVKSLTLIDSFGFICAPEEQMTDQLRRGLLSRMKSANTTRSFTEETAVKARLHVSDLTVEHAKLIVKRSLIEIEPKSMDTVGVDSASILYRWRSDPRLRSVSPYRLSLKQGQQLFSDIKCPLQLIYGDKGMKMVVTGLKNFSSGVNSLQTTKLSGGHHVHMEKAEELLPILHHFFSEI	not soluble
MGSDKIHHHHHHMAELSTRYNPAEIETKWYRYWEEKGYFTPKGVGEKFSIVIPPPNITGRIHMGHALNITLQDIVVRYKRMKGYDVLWVPGEDHAGIATQNAVEKFLLQTQGKTREEIGREKFLEITWEWANKYRREIREQIKALGASVDWTRERFTLDEGLSRAVRKVFVELYRKGLIYRGKYIVNWCPRCKTVLSDEEVEHKEHKSKLYYVKYPVKDSDEYIVVATTRPETMLGDTAVAVHPEDERYKNFVGKTLILPLVGREIPVVADKYVDPKFGTGAVKVTPAHDPNDYLIAQRHNLPMIEIFDDNARINENGGKYKGLDRYEAREKIVKDLEEQGFLVKIEDYTHSVGHCYRCDTVIEPKLSDQWFVSTKPLAKRAIEAVENGEIRFFPERWTKVYLNWMYEIRDWCISRQLWWGHRIPVWYCQDCGHLNVSEEDVEKCEKCGSTNLKQDEDVLDTWFSSALWPFSTLGWPEETEDLKRYYPTDLLVTGFDIIFFWVARMIMMGYEFMNDKPFSHVYIHQLVRDKYGRKMSKSLGNGIDPLEVIDEYGADPMRFTLAILAAQGRDIKLDPRYFDAYKKFANKIWNATRFVLMNLEDYKEVPLENLKTVDKWILTRLNKTVEEVTNALENYDFNIAARTIYNFFWDDFCDWYIEASKPRLKTEERNLVQTVLVKVLDASLRLLHPFMPFLTEELWQKLPVAGESITIAKWPEIERELIDETAEKEFTRLMNMVRGVRNVRAEMNLPQSQRVKVYIKGYEVTEEEELLLKTLGNIEEVSFVNEKPPKTATAYVEEEIEAYVDLGGLIDFEKEKERLKQIMEKIQKEIDRLEKKLANKDFVEKAPEEVVEETKEKLNTNRERLARLESILRDLE	not soluble
GPGSMIKIHTEKDFIKMRAAGKLAAETLDFITDHVKPNVTTNSLNDLCHNFITSHNAIPAPLNYKGFPKSICTSINHVVCHGIPNDKPLKNGDIVNIDVTVILDGWYGDTSRMYYVGDVAIKPKRLIQVTYDAMMKGIEVVRPGAKLGDIGYAIQSYAEKHNYSVVRDYTGHGIGRVFHDKPSILNYGRNGTGLTLKEGMFFTVEPMINAGNYDTILSKLDGWTVTTRDKSLSAQFEHTIGVTKDGFEIFTLSPKKLDYPPY	soluble
MGSDKIHHHHHHMEEEAIVPEVLLDKAIELGLSFTGSTFPISIFPSEIRNIIAEVHECQGFPIDYIASAMLVAIAVGIGNTHLAELKRGWQESTMLYVALVGRPGTNKSHPLSFAMKPFLDFDYQENKLYERSYAEYDNIMRMNRKERIEGGFPDQPTEPMRKRFLVSDITPEGLSFIHAQNKRGLCLWTDELSAWFKNFNRYNSGSEEQFWLSVFSAKATISDRKGNRSSIFIKRPYISVVGTIQKKILGELSKGERSSNGFIDRILFVMPNLQQKARWSRTELPDDTEKRWGGIIRRLIDLPCAKDEEGEVTPEIIPFEEDAKARLYMWQEEHARLCDTEANEVLVGVYCKLEIYIIRFCLIIQLARWVCGESEKSAIDLTSVERAITLTEYFRHSAQQVHAEIAGVQLTQQQQQLLAELPASFQTAEALSIAQKLGMKERAFKDFLSRNIGHLFAKERHGLYHKLNM	not soluble
MAHHHHHHSGMSGMRVYLGADHAGYELKQRIIEHLKQTGHEPIDCGALRYDADDDYPAFCIAAATRTVADPGSLGIVLGGSGNGEQIAANKVPGARCALAWSVQTAALAREHNNAQLIGIGGRMHTVAEALAIVDAFVTTPWSKAQRHQRRIDILAEYERTHEAPPVPGAPA	soluble
MPLCLKINKKHGEQTRRILIENNLLNKDYKITSEGNYLYLPIKDVDEDILKSILNIEFELVDKELEEKKIIKKPSFREIISKKYRKEIDEGLISLSYDVVGDLVILQISDEVDEKIRKEIGELAYKLIPCKGVFRRKSEVKGEFRVRELEHLAGENRTLTIHKENGYRLWVDIAKVYFSPRLGGERARIMKKVSLNDVVVDMFAGVGPFSIACKNAKKIYAIDINPHAIELLKKNIKLNKLEHKIIPILSDVREVDVKGNRVIMNLPKFAHKFIDKALDIVEEGGVIHYYTIGKDFDKAIKLFEKKCDCEVLEKRIVKSYAPREYILALDFKINKK	soluble
MAGRAAVPEVIWSRPERTGRGPRPAYTRADIAAAAVRIADADGLDAVSMRRVAGELGCGTMSLYNYVPRKEDLYELMMDAVSGEHELWEPSGDWRADMIRVAHQTRALMHRHTWLPRLMSPVYGFSPNALRYLEHCLACLDPFEAPYGTKMELVAMVNGVVTTYVANEIATVERTRSLPWSEEQENAARIAYLGRQVASGAYPRLAASFAEDAGPIDLEGVFERALARVLDGFA	not soluble
